Measurements published in US7094554 (University of Texas, dated 2006).

What was measured:
[1] = molecular target: T1, Cry1Ab toxin (trypsinized 60 kD toxin) (Bacillus thuringiensis, UniProt P0A370 29-620, limits assumed, radioiodinated (125I, chloramine T) where used as labelled ligand); assay: competition ligand blot, 125I-Cry1Ab with unlabeled Cry1Ab on the 32 kD protein, gamma counting
T1 construct: domain: soluble trypsinized 60 kD toxin; also called Cry lAb

[2] = molecular target: T1, Cry1Ab toxin (trypsinized 60 kD toxin); assay: blot of E. coli lysate incubated with Cry1Ab toxin, then anti-toxin antiserum

| Binder | Kd [1] [nM] | binding result [2] |
| --- | --- | --- |
| PBW-866 expressed protein (BT-R2 aa 1210-1496), 32 kD (receptor, also called 32 kD protein) EEGKEFEVTIRATDGGTEPRSYSTDSTITVLFVPTLGDPIFQDNTYSVAFFEKEVGLTERFSLPHAEDPKNKLCTDDCHDIYYRIFGGVDYEPFDLDPVTNVIFLKSELDRETTATHVVQVAASNSPTGGGIPLPGSLLTVTVTVREADPRPVFEQRLYTAGISTSDNINRELLTVRATHSENAQLTYTIEDGSMAVDSTLEAVKDSAFHLNAQTGVLILRIQPTASMQGMFEFNVIATDPDEKTDTAEVKVYLISSQNRVSFIFLNDVETVESNRDFIAETFSVGF | ~17 |  |
| PBW-421 expressed protein (BT-R2 aa 1367-1496), 21 kD (receptor, also called 21 kD protein) LYTAGISTSDNINRELLTVRATHSENAQLTYTIEDGSMAVDSTLEAVKDSAFHLNAQTGVLILRIQPTASMQGMFEFNVIATDPDEKTDTAEVKVYLISSQNRVSFIFLNDVETVESNRDFIAETFSVGF |  | no binding |
